Here are results for five molecules from patent US20250388652A1 (BEIJING WISDOMAB BIOTECHNOLOGY, published 2025).

For assay [1], the target named is T1, F protein mutant RSV-DS-Cav1-A with a DS-Cav1 structure before fusion (respiratory syncytial virus subtype A, …, UniProt P03420 26-513).
The target of assay [2] is T2, F protein of strain 18537 of RSV subtype B (respiratory syncytial virus subtype B, …, UniProt P13843 26-574). Put plainly: cell-based or functional assay.
The target in assay [3] is T1, F protein mutant RSV-DS-Cav1-A with a …. This is another data set of the same source.
Assay [4] deals with T3, F protein of strain A2 of RSV subtype A (respiratory syncytial virus subtype A, …, UniProt P03420 26-574). Put plainly: cell-based or functional assay.
Assay [5] has as its target T2, F protein of strain 18537 of RSV …. In words: cell-based or functional assay. The source holds these as a separate data set.
Assay [6] has as its target T3, F protein of strain A2 of RSV subtype A. In words: cell-based or functional assay. The source holds these as a separate data set.

B1: anti-RSV monoclonal antibody Clesrovimab (RB1) (antibody, V domains shown)
VH: EVQLVESGGGLVRPGRSLRLSCTVSGFSFDDSAMSWVRQAPGKGLEWISFIKSKTYGGTKEYAASVKGRFTISRDDSKNIAYLQMNSLKTEDTAVYYCTRGAPYGGNSDYYYGLDVWGQGTTVTVSS
VL: DIQMTQSPSSLSASVGDRVTITCRTSQDVRGALAWYQQKPGKAPKLLIFDASSLETGVPSRFSGSGSGTVFTLTISSLQPEDFAAYYCQQFLDFPFTFGQGTRLEIK
Take B1: in assay [1], the Kd worked out at 17.6 nM, the koff came out at 0.000351 s⁻¹ and the kon came out at 20000 M⁻¹ s⁻¹. Also, in assay [2], the “IC50(nM), inhibition of strain RSV/18537 infection of Hep-2 cells (RFFIT)” value amounted to 0.088 nM.

B2: recombinant monoclonal antibody R3B1h1 against F protein of RSV (human IgG1-K version) (antibody, V domains shown)
VH: QVQLVQSGAEVKKPGSSVKVSCKASGGLLEDYIINWVRQAPGQGLEWMGGIIPVLGTVHYGPKFQGRVTITADESTSTAYMELSSLRSEDTAVYYCATETAIVVTESYRPHFFDNWGQGTLVTVSS
VL: DIQMTQSPSSLSASVGDRVTITCQASQDIVNYLNWYQQKPGKAPKLLIYVASNLETGVPSRFSGSGSGTDFTFTISSLQPEDIATYYCQEFAGLALNFGGGTKVEIKR
In assay [1], B2 returned a Kd of 0.621 nM, a koff of 2.37e-05 s⁻¹ and a kon of 31800 M⁻¹ s⁻¹. Besides, in assay [3], the “EC50 (read off the curve)” value was approximately 0.1 nM. In addition, in assay [4], the “neutralisation activity against RSV/A2 relative to Clesrovimab, by IC50” value was approximately 12 fold; the “neutralisation activity against RSV/A2 relative to Nirsevimab, by IC50” value is approximately 5 fold; the “neutralisation activity against RSV/A2 relative to Palivizumab, by IC50” value is approximately 410 fold. Further, in assay [5], the “neutralisation activity against RSV/18537 relative to Clesrovimab, by IC50” value was approximately 12 fold; the “neutralisation activity against RSV/18537 relative to Nirsevimab, by IC50” value was approximately 18 fold; the “neutralisation activity against RSV/18537 relative to Palivizumab, by IC50” value is approximately 545 fold. Besides, the “IC50(nM), inhibition of RSV/A2 strain infection of Hep-2 cells (RFFIT)” value in assay [6] came to 0.00516 nM.

B3: recombinant monoclonal antibody R22B1 against F protein of RSV (human IgG1-K version) (antibody, V domains shown)
VH: QVQLVQSGAEVKKPGSSVMVSCQASGDPLQNYIINWVRQAPGQGPEWMGAIIPALGSAHYGPKFQGRVTITADESTDTAYMELSSLRSEDTAMYYCATETAVIISESYLPHFFDNWGQGTLVTVSS
VL: DIQMTQSPSSLSAAVGDRVTITCQASQDIVNYLNWYQQKPGKAPKLLIYVASNLETGVPSRFSGSGSGTDFSLTISSLQPEDVATYYCQEYDSLALAFGGGTKVEIKR
In the case of B3, in assay [1], the Kd was found to be 0.354 nM, the koff came out at 1.41e-05 s⁻¹ and the kon is 39900 M⁻¹ s⁻¹. The “IC50(nM), inhibition of strain RSV/18537 infection of Hep-2 cells (RFFIT)” value in assay [2] came to 0.111 nM.

B4: anti-RSV monoclonal antibody Nirsevimab (MEDI8897) (antibody, V domains shown)
VH: QVQLVQSGAEVKKPGSSVMVSCQASGGLLEDYIINWVRQAPGQGPEWMGGIIPVLGTVHYGPKFQGRVTITADESTDTAYMELSSLRSEDTAMYYCATETALVVSETYLPHYFDNWGQGTLVTVSS
VL: DIQMTQSPSSLSAAVGDRVTITCQASQDIVNYLNWYQQKPGKAPKLLIYVASNLETGVPSRFSGSGSGTDFSLTISSLQPEDVATYYCQQYDNLPLTFGGGTKVEIK
In assay [1], B4 displayed a Kd of 0.477 nM, an off-rate constant (koff) of 1.5e-05 s⁻¹ and a kon of 31500 M⁻¹ s⁻¹. The “IC50(nM), inhibition of strain RSV/18537 infection of Hep-2 cells (RFFIT)” value in assay [2] turned out to be 0.139 nM.

B5: anti-RSV monoclonal antibody Palivizumab (Hu1129) (antibody, V domains shown)
VH: QVTLRESGPALVKPTQTLTLTCTFSGFSLSTSGMSVGWIRQPPGKALEWLADIWWDDKKDYNPSLKSRLTISKDTSKNQVVLKVTNMDPADTATYYCARSMITNWYFDVWGAGTTVTVSS
VL: DIQMTQSPSTLSASVGDRVTITCKCQLSVGYMHWYQQKPGKAPKLWIYDTSKLASGVPSRFSGSGSGTEFTLTISSLQPDDFATYYCFQGSGYPFTFGGGTKLEIK
In assay [1], B5 registered a Kd of 2.6 nM, an off-rate (koff) of 8.2e-05 s⁻¹ and a kon of 31600 M⁻¹ s⁻¹. Besides, the “IC50(nM), inhibition of strain RSV/18537 infection of Hep-2 cells (RFFIT)” value in assay [2] amounted to 4.15 nM.

A word on the Kd: it is the free concentration of one partner at which half of the binding sites on the other are occupied at equilibrium, for simple one-to-one binding. High values mean lower affinity, low ones higher affinity. The term koff denotes the first-order rate constant of dissociation. The low end stands for slow dissociation, the high end for fast dissociation. What is called kon is the rate constant with which the complex forms. A word on the EC50 (read off the curve): it is the concentration giving half of the maximal effect. A higher EC50 (read off the curve) goes with weaker potency.
